Where two headings read alike, the source gives them in different places. Non-standard residues stand in square brackets, D forms with d. No end group written: not given here. *: point of attachment. Succinimide(1-Et,3-yl) = CCN1C(=O)CC(*)C1=O; Palmitoyl = CCCCCCCCCCCCCCCC(=O)*; hArg = N=C(N)NCCCC[C@H](N)C(=O)O; dNle = CCCC[C@@H](N)C(=O)O
Columns and labels:
human NMUR1 [1] = molecular target: T1, human NMUR1 (human, UniProt Q9HB89 1-426); assay: cell-based or functional assay
T1 sequence (looked up): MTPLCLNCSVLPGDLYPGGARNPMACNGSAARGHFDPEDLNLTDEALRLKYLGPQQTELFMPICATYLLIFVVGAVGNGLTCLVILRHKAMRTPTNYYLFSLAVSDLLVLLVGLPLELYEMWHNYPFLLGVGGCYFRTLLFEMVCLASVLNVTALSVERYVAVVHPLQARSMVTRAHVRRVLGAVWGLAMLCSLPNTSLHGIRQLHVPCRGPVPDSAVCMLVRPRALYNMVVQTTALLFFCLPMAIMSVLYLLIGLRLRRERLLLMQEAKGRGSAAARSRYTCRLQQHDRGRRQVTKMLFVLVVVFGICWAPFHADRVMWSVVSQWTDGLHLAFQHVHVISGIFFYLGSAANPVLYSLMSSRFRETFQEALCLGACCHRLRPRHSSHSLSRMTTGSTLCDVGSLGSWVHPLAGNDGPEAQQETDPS

human NMUR2 [2] = molecular target: T2, human NMUR2 (human, UniProt Q9GZQ4 1-415); assay: cell-based or functional assay
human NMUR1 [3] = molecular target: T1, human NMUR1; assay: 125I-hNMU-25 displacement, HEK cell membranes
Procedure: (§1) Confluent cell monolayers expressing NMU receptors (the HEK cells described above) were harvested with phosphate buffered saline, collected by centrifugation, and resuspended in membrane buffer (50 mM TrisCl pH 7.4, 5 mM MgCl₂, 1× Protease Inhibitor Cocktail, 10 μM phosphoramidon). After the cell pellet was homogenized, the solution was centrifuged at 18,000 rpm for 20 minutes at 4° C. The pellet was resuspended in membrane buffer to yield a final concentration of 0.5-5 μg/μL of membrane and stored at −80° C.
(§2) Experiments were performed in assay buffer (25 mM TrisCl, pH 7.4, 10 mM MgCl₂, 2mM EDTA, 1× Protease Inhibitor Cocktail, 100 μg/mL Bacitricin, 10 μM phosphoramidon) in 200 μL volumes in a 96-well format using 2-5 μg of membrane and […] ¹²⁵I-hNMU-25 (about 12,000 cpm/well). For non-specific binding, 1 μM hNMU-25 was added. About 5 μL of peptides were added to measure antagonist activity, and the entire reaction was incubated at room temperature with shaking for 80 minutes. The reaction was terminated by rapid filtration through 0.3% poly-ethylenimine presoaked Millipore 96-well filter plates and washed with ice-cold buffer (5 mM TrisCl pH 7.4, 10 mM MgCl₂, 2.5 mM EDTA, 0.04% Triton X-100). Plates were air-dried overnight at room temperature and recovered radioactivity was determined by standard scintillation counting. IC₅₀ values were determined using GraphPad Prism software.
(§3) Concentration-response curves and radioligand-binding data were fitted using Prism (GraphPad Software). Results are summarized below in Tables 8 and 9.

human NMUR2 [4] = molecular target: T2, human NMUR2; assay: 125I-hNMU-25 displacement, HEK cell membranes
Procedure: as §1, §2, §3

human NMUR1 [5] = molecular target: T1, human NMUR1; assay: cell-based or functional assay; remark: listed apart in the source
human NMUR2 [6] = molecular target: T2, human NMUR2; assay: cell-based or functional assay; remark: listed apart in the source
human NMUR1 [7] = molecular target: T1, human NMUR1; assay: cell-based or functional assay; remark: listed apart in the source
human NMUR2 [8] = molecular target: T2, human NMUR2; assay: cell-based or functional assay; remark: listed apart in the source
mouse NMUR1-ATG = molecular target: T3, mouse NMUR1-ATG (mouse, UniProt O55040 1-428); assay: cell-based or functional assay
T3 sequence (looked up): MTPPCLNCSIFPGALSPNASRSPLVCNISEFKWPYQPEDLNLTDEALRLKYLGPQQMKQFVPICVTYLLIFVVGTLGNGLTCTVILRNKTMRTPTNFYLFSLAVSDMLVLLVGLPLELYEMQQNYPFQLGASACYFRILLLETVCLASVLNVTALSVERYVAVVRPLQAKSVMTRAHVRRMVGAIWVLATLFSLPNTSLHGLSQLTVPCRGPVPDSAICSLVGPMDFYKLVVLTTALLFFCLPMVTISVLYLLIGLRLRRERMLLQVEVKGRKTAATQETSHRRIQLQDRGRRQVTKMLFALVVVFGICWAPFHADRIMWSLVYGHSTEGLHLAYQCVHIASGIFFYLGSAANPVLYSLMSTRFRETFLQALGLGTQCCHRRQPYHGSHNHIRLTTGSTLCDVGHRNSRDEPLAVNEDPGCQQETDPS

mouse NMUR1-CTG = molecular target: T4, mouse NMUR1-CTG (mouse, UniProt O55040 1-428); assay: cell-based or functional assay
T4 sequence (looked up): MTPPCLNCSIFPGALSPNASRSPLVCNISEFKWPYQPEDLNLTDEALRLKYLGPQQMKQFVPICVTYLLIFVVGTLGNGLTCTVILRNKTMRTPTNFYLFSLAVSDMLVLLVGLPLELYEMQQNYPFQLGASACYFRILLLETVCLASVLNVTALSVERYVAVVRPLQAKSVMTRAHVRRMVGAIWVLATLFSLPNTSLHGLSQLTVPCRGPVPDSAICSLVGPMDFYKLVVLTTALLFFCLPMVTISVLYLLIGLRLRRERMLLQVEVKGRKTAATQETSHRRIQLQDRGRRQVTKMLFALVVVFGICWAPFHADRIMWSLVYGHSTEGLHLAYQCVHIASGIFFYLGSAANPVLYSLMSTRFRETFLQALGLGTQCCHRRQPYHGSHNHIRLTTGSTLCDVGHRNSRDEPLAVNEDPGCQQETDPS

mouse NMUR2 = mouse NMUR2 (mouse, UniProt Q8BZ39 1-395); assay: cell-based or functional assay
rat NMUR1-ATG = molecular target: T5, rat NMUR1-ATG (rat, UniProt Q9JJI5 1-425); assay: cell-based or functional assay
T5 sequence (looked up): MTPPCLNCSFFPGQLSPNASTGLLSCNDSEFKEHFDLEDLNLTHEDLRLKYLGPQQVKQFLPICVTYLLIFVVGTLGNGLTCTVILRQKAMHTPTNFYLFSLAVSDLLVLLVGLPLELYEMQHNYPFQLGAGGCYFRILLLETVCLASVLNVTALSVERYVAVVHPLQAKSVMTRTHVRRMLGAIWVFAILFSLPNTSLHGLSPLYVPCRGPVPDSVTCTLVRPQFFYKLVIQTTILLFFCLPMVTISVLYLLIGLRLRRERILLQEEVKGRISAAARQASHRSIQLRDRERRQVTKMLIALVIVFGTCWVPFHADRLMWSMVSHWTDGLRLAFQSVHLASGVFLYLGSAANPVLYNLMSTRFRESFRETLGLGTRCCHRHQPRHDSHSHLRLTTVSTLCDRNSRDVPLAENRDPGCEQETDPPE

rat NMUR1-TTG = molecular target: T6, rat NMUR1-TTG (rat, UniProt Q9JJI5 1-425); assay: cell-based or functional assay
T6 sequence (looked up): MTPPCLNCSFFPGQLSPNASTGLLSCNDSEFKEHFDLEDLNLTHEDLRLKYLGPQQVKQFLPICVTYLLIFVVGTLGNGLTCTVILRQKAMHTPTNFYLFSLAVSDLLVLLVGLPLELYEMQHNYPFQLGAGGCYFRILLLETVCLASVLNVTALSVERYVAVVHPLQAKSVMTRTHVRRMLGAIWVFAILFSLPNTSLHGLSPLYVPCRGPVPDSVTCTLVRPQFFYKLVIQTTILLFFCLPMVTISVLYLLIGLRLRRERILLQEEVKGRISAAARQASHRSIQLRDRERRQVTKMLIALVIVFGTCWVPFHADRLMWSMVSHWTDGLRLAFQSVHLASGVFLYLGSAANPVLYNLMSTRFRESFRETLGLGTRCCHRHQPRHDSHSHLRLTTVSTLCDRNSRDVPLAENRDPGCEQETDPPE

rat NMUR2 = rat NMUR2 (rat, UniProt Q9ESQ4 1-395); assay: cell-based or functional assay
rat NMUR2, sequence (Q9ESQ4 whole entry): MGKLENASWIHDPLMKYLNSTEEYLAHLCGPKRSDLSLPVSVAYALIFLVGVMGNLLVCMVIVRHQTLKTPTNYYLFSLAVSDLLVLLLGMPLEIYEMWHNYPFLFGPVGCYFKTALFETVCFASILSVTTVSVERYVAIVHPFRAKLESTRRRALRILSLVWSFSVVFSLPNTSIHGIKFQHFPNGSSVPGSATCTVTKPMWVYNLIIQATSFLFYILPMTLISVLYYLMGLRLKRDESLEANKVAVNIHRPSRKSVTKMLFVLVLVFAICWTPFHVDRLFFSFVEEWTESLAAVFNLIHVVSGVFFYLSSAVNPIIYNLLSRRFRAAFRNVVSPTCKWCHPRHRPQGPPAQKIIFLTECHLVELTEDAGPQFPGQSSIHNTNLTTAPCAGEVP

T2 sequence (Q9GZQ4 whole entry): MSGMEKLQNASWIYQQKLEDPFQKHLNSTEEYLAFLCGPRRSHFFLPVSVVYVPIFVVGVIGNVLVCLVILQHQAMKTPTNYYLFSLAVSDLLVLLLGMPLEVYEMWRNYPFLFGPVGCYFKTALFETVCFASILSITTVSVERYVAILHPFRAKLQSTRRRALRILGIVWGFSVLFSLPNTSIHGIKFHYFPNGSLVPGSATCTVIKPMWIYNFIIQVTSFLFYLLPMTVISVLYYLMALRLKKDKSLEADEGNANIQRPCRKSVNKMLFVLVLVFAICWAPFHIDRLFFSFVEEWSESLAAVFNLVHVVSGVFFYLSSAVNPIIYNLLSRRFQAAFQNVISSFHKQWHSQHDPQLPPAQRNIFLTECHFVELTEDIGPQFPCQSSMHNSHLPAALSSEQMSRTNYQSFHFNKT
mouse NMUR2, sequence (Q8BZ39 whole entry): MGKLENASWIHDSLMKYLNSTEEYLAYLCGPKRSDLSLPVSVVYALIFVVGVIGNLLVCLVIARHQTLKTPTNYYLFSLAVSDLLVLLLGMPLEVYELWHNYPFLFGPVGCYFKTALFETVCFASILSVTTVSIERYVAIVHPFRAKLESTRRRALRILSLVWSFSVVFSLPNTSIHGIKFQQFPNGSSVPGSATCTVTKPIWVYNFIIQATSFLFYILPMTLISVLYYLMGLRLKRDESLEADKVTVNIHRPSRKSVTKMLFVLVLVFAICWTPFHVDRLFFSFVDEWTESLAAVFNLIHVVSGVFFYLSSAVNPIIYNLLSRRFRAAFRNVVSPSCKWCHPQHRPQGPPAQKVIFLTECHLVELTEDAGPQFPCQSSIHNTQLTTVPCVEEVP

Row | Binder | % activity (human NMUR1 [1]) [%] | EC50 (human NMUR1 [1]) [nM] | % activity (human NMUR2 [2]) [%] | EC50 (human NMUR2 [2]) [nM] | % activity (binding) (human NMUR1 [3]) [%] | % activity (binding) (human NMUR2 [4]) [%] | IC50 (human NMUR2 [4]) [nM] | % activity (human NMUR1 [5]) [%] | IC50 (nM), functional (human NMUR1 [5]) [nM] | % activity (human NMUR2 [6]) [%] | IC50 (nM), functional (human NMUR2 [6]) [nM] | IC50 (human NMUR1 [3]) [nM] | further results
1 | FALFRPRN-NH2 [neuromedin U receptor agonist N] | 87 | 53 | 100 | 3.9 | 38.4 | 100 | 22 |  |  |  |  |  | 
2 | YF[dA]WRPRN-NH2 (N-terminus assumed; SMILES C[C@@H](NC(=O)[C@H](Cc1ccccc1)NC(=O)[C@@H](N)Cc1ccc(O)cc1)C(=O)N[C@@H](Cc1c[nH]c2ccccc12)C(=O)N[C@@H](CCCNC(=N)N)C(=O)N1CCC[C@H]1C(=O)N[C@@H](CCCNC(=N)N)C(=O)N[C@@H](CC(N)=O)C(N)=O) [neuromedin U receptor agonist D] |  |  |  |  | 100 | 0 |  | 96 | 1.5 | 0 | > 1000 | 2.6 | 
3 | FRVDEEFQSPFASQSRGFWLFRPR[dNle]-NH2 (N-terminus assumed; SMILES CCCC[C@@H](NC(=O)[C@H](CCCNC(=N)N)NC(=O)[C@@H]1CCCN1C(=O)[C@H](CCCNC(=N)N)NC(=O)[C@H](Cc1ccccc1)NC(=O)[C@H](CC(C)C)NC(=O)[C@H](Cc1c[nH]c2ccccc12)NC(=O)[C@H](Cc1ccccc1)NC(=O)CNC(=O)[C@H](CCCNC(=N)N)NC(=O)[C@H](CO)NC(=O)[C@H](CCC(N)=O)NC(=O)[C@H](CO)NC(=O)[C@H](C)NC(=O)[C@H](Cc1ccccc1)NC(=O)[C@@H]1CCCN1C(=O)[C@H](CO)NC(=O)[C@H](CCC(N)=O)NC(=O)[C@H](Cc1ccccc1)NC(=O)[C@H](CCC(=O)O)NC(=O)[C@H](CCC(=O)O)NC(=O)[C@H](CC(=O)O)NC(=O)[C@@H](NC(=O)[C@H](CCCNC(=N)N)NC(=O)[C@@H](N)Cc1ccccc1)C(C)C)C(N)=O) [neuromedin U receptor agonist Q] | 0 | > 1000 | 97 | 18.3 | 16 | 89 | 12 |  |  |  |  |  | 
4 | YF[dL]WRPRN-NH2 (N-terminus assumed; SMILES CC(C)C[C@@H](NC(=O)[C@H](Cc1ccccc1)NC(=O)[C@@H](N)Cc1ccc(O)cc1)C(=O)N[C@@H](Cc1c[nH]c2ccccc12)C(=O)N[C@@H](CCCNC(=N)N)C(=O)N1CCC[C@H]1C(=O)N[C@@H](CCCNC(=N)N)C(=O)N[C@@H](CC(N)=O)C(N)=O) [neuromedin U receptor agonist B] |  |  |  |  | 96 | 35 |  | 103 | 9 | 0 | > 1000 | 14 | 
5 | Palmitoyl-C(Succinimide(1-Et,3-yl))FRVDEEFQSPFASQSRGYFLFRPRN-NH2 [NMU24] |  |  |  |  |  |  |  |  |  |  |  |  | % Activity (FLIPR) (human NMUR1 [7]): 34.4%; EC50 (FLIPR) (human NMUR1 [7]): 1000 nM; % Activity (FLIPR) (human NMUR2 [8]): 63.9%; EC50 (FLIPR) (human NMUR2 [8]): 1000 nM; % Activity (FLIPR) (mouse NMUR1-ATG): 81.4%; EC50 (FLIPR) (mouse NMUR1-ATG): 1000 nM; % Activity (FLIPR) (mouse NMUR1-CTG): 56.1%; EC50 (FLIPR) (mouse NMUR1-CTG): 591 nM; % Activity (FLIPR) (mouse NMUR2): 82.4%; EC50 (FLIPR) (mouse NMUR2): 1000 nM; % Activity (FLIPR) (rat NMUR1-ATG): 80.8%; EC50 (FLIPR) (rat NMUR1-ATG): 236 nM; % Activity (FLIPR) (rat NMUR1-TTG): 67.7%; EC50 (FLIPR) (rat NMUR1-TTG): 222 nM; % Activity (FLIPR) (rat NMUR2): 52.2%; EC50 (FLIPR) (rat NMUR2): 986 nM
6 | FRVDEEFQSPFASQSRGFWLFRA[hArg]N-NH2 (N-terminus assumed; SMILES CC(C)C[C@H](NC(=O)[C@H](Cc1c[nH]c2ccccc12)NC(=O)[C@H](Cc1ccccc1)NC(=O)CNC(=O)[C@H](CCCNC(=N)N)NC(=O)[C@H](CO)NC(=O)[C@H](CCC(N)=O)NC(=O)[C@H](CO)NC(=O)[C@H](C)NC(=O)[C@H](Cc1ccccc1)NC(=O)[C@@H]1CCCN1C(=O)[C@H](CO)NC(=O)[C@H](CCC(N)=O)NC(=O)[C@H](Cc1ccccc1)NC(=O)[C@H](CCC(=O)O)NC(=O)[C@H](CCC(=O)O)NC(=O)[C@H](CC(=O)O)NC(=O)[C@@H](NC(=O)[C@H](CCCNC(=N)N)NC(=O)[C@@H](N)Cc1ccccc1)C(C)C)C(=O)N[C@@H](Cc1ccccc1)C(=O)N[C@@H](CCCNC(=N)N)C(=O)N[C@@H](C)C(=O)N[C@@H](CCCCNC(=N)N)C(=O)N[C@@H](CC(N)=O)C(N)=O) [neuromedin U receptor agonist P] | 11 | 46 | 100 | 25 | 1 | 81 | 150 |  |  |  |  |  | 
7 | FWLFRP[hArg]N-NH2 (N-terminus assumed; SMILES CC(C)C[C@H](NC(=O)[C@H](Cc1c[nH]c2ccccc12)NC(=O)[C@@H](N)Cc1ccccc1)C(=O)N[C@@H](Cc1ccccc1)C(=O)N[C@@H](CCCNC(=N)N)C(=O)N1CCC[C@H]1C(=O)N[C@@H](CCCCNC(=N)N)C(=O)N[C@@H](CC(N)=O)C(N)=O) [neuromedin U receptor agonist I] | 7 | > 1000 | 99 | 10 | 23 | 90 | 9.1 |  |  |  |  |  | 
8 | FWLFRA[hArg]N-NH2 (N-terminus assumed; SMILES CC(C)C[C@H](NC(=O)[C@H](Cc1c[nH]c2ccccc12)NC(=O)[C@@H](N)Cc1ccccc1)C(=O)N[C@@H](Cc1ccccc1)C(=O)N[C@@H](CCCNC(=N)N)C(=O)N[C@@H](C)C(=O)N[C@@H](CCCCNC(=N)N)C(=O)N[C@@H](CC(N)=O)C(N)=O) [neuromedin U receptor agonist J] | 0 | > 1000 | 59 | 160 | 34 | 63 | 150 |  |  |  |  |  | 
9 | YFGWRPRN-NH2 [neuromedin U receptor agonist C] |  |  |  |  | 100 | 0 |  | 87 | 1.1 | 0 | > 1000 | 0.42 | 
